PMC11811199 (EMBO Reports, 2024)

Biological target: T1, DYRK4-His (UniProt Q9NR20 1-520)
T1 construct: also called recombinant DYRK4; pET30a-DYRK4-his; not shown: His, C-terminal, kept
T1 sequence (looked up): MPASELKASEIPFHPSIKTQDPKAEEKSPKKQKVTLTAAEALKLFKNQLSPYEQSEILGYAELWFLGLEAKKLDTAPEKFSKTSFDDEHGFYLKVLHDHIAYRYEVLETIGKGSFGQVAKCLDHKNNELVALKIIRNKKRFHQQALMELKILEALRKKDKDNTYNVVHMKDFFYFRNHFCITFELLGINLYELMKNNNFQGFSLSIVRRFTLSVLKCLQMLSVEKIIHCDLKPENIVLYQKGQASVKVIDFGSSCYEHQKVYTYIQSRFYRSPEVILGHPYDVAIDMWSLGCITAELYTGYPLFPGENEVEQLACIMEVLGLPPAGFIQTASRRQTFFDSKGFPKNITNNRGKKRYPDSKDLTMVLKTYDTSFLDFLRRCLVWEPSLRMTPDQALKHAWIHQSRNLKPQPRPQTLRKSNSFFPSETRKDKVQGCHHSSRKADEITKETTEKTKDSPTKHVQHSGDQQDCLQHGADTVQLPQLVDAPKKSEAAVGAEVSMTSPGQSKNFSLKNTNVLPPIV
Experiment: pull-down
Settings: both partners purified

binding result: binds
B1: GST-IRF3 (natural protein, UniProt Q14653 1-427, looked up)
chain: MGTPKPRILPWLVSQLDLGQLEGVAWVNKSRTRFRIPWKHGLRQDAQQEDFGIFQAWAEATGAYVPGRDKPDLPTWKRNFRSALNRKEGLRLAEDRSKDPHDPHKIYEFVNSGVGDFSQPDTSPDTNGGGSTSDTQEDILDELLGNMVLAPLPDPGPPSLAVAPEPCPQPLRSPSLDNPTPFPNLGPSENPLKRLLVPGEEWEFEVTAFYRGRQVFQQTISCPEGLRLVGSEVGDRTLPGWPVTLPDPGMSLTDRGVMSYVRHVLSCLGGGLALWRAGQWLWAQRLGHCHTYWAVSEELLPNSGHGPDGEVPKDKEGGVFDLGPFIVDLITFTEGSGRSPRYALWFCVGESWPQDQPWTKRLVMVKVVPTCLRALVEMARVGGASSLENTVDLHISNSHPLSLTSDQYKAYLQDLVEGMDFQGPGES
notes: also called pGEX6P-1-GST-IRF3; not shown: GST, N-terminal, kept
